This is an account of results in publication PMC4888843.

The target of assay [1] is human MCL-1ΔN170ΔC23 (human) (UniProt Q07820). Nature of the assay: ELISA.
For the next assay, the target named is human BAXΔC21 (human) (UniProt Q07812). Nature of the assay: SEC.
A further assay deals with mouse Bcl-2ΔC22 (mouse) (UniProt P10417). The assay is described as follows: SPR. On the technique in general: In SPR one partner is held on a chip, and binding of the other changes the refractive index at the surface.

Bounds are passed on as bounds.

Broadly, the IC50 is the concentration at which inhibition is half-maximal. “phage-displayed human BAK BH3 peptide G82E (from UniProt Q16611 67-92)”: the concentration for half-maximal inhibition (IC50) in assay [1] is more than 10 µM.

Usually stoichiometry N stands for a count of units in the complex or per binding partner. “human BAXΔC21 (from UniProt Q07812 1-171) (domain or fragment)” gave a stoichiometry N in the assay with human BAXΔC21 (human) of 2.

mBak Q75L BH3 synthetic peptide: the fold weaker affinity than wild-type mBak BH3 with mouse Bcl-2ΔC22 (mouse) turned out to be 2.5 fold.
